According to patent publication US20180318386A1, “PEPTIDES AND METHODS OF TREATING ENDOMETRIOSIS USING THE SAME” (BIOINCEPT, LLC, priority 2014, published 2018):

Tests used:
Test in all cases: PIF affinity resin pull-down, CD8+ cell lysate, LC-MS/MS count
[1] = biological target: 14-3-3 protein zeta/delta (human) (UniProt P63104)
[2] = biological target: Acidic leucine-rich nuclear phosphoprotein 32 family member A (human) (UniProt P39687)
[3] = biological target: Calmodulin (human) (UniProt P0DP23)
[4] = biological target: Calreticulin (human) (UniProt P27797)
Sequence of Calreticulin (human) (P27797 18-417 limits assumed): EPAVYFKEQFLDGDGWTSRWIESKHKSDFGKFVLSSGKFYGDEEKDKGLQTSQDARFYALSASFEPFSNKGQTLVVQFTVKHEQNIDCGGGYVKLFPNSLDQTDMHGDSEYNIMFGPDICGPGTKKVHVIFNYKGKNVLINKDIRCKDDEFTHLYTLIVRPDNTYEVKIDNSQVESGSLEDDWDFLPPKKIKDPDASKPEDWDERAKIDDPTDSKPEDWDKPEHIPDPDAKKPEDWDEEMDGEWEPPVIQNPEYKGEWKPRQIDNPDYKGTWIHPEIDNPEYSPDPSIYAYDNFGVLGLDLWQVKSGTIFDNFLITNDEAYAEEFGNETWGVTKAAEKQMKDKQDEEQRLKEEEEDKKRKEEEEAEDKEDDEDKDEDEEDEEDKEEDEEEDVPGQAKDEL

[5] = biological target: Cartilage oligomeric matrix protein (human) (UniProt P49747)
[6] = biological target: Cofilin-1 (human) (UniProt P23528)
[7] = biological target: Isoform 2 of Heat shock protein HSP 90-alpha (human) (UniProt P07900)
[8] = biological target: Isoform 2 of Protein SET (human) (UniProt Q01105)
Sequence of Isoform 2 of Protein SET (human) (Q01105 other isoform, or with tags, fused parts or gaps limits assumed): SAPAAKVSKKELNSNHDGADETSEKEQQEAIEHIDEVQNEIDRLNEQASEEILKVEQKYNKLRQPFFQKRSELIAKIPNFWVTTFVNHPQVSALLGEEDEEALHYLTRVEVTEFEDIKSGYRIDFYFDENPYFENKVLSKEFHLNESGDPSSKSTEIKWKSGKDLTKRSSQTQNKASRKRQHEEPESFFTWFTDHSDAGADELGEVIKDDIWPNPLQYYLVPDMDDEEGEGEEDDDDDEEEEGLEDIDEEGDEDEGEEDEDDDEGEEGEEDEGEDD

[9] = biological target: Nuclease-sensitive element-binding protein 1 (Fragment) (human) (UniProt P67809)
Sequence of Nuclease-sensitive element-binding protein 1 (Fragment) (human) (P67809 2-324 limits assumed): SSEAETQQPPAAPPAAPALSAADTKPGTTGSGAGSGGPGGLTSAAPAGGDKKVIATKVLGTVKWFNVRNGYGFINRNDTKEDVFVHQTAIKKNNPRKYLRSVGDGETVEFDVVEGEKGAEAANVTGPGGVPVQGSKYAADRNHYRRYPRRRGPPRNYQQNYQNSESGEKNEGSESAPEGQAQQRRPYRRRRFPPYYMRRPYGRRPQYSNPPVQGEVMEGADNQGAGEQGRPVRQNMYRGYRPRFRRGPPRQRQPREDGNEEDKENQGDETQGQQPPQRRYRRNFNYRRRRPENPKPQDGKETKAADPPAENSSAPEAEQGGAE

[10] = biological target: Nucleolin (human) (UniProt P19338)
[11] = biological target: Serum deprivation-response protein (human) (UniProt O95810)
[12] = biological target: Talin-1 (human) (UniProt Q9Y490)
Sequence of Talin-1 (human) (Q9Y490 whole entry): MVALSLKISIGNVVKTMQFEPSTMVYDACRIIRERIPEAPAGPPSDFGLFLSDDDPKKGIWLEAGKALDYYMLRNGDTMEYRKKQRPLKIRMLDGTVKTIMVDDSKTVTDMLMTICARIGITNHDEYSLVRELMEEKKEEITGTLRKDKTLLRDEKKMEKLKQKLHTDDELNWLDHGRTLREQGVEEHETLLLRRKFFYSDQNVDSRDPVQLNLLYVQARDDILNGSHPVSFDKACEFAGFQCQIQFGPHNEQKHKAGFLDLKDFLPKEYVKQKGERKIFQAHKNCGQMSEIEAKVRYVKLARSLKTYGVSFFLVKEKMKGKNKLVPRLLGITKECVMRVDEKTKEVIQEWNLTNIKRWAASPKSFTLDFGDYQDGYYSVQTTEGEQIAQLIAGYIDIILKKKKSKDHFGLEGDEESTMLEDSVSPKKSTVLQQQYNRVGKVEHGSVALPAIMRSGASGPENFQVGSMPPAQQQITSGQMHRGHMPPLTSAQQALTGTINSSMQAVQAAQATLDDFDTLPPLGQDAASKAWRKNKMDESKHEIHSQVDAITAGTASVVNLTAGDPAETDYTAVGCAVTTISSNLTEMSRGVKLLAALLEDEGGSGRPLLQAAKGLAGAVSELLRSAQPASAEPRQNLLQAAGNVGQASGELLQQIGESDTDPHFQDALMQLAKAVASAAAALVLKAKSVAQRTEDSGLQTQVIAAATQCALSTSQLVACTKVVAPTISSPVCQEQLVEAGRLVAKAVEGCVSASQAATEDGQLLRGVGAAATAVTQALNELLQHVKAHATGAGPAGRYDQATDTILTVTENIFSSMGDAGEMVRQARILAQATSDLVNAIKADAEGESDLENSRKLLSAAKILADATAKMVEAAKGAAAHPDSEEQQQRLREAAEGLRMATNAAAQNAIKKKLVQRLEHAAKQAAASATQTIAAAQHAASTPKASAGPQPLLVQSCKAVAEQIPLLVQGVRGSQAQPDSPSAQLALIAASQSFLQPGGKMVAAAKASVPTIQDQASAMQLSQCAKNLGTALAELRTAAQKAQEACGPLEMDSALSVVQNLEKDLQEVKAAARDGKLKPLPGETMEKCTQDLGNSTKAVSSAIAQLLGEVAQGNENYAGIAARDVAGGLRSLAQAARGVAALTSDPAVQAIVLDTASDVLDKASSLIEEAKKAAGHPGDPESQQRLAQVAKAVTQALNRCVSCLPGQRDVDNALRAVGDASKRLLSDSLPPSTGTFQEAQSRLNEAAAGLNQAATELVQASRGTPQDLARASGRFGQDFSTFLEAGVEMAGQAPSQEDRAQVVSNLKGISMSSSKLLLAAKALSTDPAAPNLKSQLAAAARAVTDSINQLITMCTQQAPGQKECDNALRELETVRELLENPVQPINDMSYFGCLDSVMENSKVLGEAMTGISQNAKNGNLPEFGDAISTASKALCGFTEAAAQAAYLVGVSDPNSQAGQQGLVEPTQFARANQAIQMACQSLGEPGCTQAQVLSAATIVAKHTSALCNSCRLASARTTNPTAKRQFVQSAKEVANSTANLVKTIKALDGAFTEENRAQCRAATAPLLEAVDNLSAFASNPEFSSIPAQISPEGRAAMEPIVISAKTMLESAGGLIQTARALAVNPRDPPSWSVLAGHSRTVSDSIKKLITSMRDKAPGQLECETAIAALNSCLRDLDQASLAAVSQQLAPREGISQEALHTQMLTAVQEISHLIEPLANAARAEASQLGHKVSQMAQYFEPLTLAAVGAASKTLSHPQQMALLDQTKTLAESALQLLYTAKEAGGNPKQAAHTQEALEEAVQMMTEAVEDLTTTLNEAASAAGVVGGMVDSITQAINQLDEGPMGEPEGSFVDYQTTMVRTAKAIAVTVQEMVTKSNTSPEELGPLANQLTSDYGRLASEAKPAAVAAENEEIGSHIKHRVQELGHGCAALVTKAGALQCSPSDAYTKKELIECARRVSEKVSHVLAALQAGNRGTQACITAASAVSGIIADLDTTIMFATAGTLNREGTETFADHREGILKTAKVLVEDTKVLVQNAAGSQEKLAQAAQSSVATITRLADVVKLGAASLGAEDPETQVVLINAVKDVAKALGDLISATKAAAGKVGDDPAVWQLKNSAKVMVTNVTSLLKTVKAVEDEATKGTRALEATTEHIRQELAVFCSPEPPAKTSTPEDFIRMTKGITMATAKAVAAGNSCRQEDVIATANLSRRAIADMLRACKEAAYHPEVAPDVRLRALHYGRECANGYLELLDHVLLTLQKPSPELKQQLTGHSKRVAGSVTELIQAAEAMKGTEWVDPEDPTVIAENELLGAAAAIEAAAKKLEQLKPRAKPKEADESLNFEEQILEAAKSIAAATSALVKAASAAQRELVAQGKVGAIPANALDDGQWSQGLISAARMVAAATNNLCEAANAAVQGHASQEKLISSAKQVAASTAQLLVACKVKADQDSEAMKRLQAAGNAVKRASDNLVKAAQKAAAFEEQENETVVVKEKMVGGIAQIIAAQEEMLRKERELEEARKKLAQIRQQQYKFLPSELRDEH

[13] = biological target: Thrombospondin-1 (human) (UniProt P07996)
[14] = biological target: Thrombospondin-4 (human) (UniProt P35443)
Sequence of Thrombospondin-4 (human) (P35443 27-961 limits assumed): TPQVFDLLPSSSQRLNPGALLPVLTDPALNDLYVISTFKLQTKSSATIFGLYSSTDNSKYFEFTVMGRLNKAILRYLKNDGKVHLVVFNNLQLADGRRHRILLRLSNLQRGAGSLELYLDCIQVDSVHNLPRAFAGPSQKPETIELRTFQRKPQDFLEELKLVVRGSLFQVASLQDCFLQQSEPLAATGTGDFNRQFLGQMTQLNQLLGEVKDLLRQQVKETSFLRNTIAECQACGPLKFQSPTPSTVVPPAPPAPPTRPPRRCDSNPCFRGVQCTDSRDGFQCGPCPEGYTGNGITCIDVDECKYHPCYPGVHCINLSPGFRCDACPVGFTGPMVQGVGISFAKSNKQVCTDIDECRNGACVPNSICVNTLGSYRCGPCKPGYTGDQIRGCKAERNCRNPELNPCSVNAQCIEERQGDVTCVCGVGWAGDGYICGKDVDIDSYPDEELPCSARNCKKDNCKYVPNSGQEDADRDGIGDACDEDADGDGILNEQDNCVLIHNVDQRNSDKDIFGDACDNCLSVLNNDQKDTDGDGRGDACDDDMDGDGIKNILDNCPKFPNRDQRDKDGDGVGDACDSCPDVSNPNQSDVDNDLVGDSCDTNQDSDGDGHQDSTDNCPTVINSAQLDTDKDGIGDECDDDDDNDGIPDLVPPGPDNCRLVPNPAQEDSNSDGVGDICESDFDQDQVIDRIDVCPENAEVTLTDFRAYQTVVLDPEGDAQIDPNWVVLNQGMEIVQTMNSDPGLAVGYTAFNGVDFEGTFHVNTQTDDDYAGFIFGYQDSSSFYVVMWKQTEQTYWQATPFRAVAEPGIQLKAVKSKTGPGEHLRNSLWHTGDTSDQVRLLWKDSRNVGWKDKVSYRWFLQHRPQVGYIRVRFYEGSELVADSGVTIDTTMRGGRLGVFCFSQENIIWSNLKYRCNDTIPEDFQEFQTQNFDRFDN

[15] = biological target: Thymosin alpha-1 (human) (UniProt P06454)
[16] = biological target: Tropomyosin alpha-4 chain (human) (UniProt P67936)
Sequence of Tropomyosin alpha-4 chain (human) (P67936 2-248 limits assumed): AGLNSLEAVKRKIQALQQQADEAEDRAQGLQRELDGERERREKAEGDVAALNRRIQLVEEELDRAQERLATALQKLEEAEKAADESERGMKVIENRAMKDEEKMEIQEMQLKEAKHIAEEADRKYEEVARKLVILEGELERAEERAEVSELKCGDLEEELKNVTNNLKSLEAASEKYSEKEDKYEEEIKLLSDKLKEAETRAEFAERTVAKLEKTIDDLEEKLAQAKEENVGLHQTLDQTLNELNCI

Sequence of 14-3-3 protein zeta/delta (human) (P63104 whole entry, stated change not applied): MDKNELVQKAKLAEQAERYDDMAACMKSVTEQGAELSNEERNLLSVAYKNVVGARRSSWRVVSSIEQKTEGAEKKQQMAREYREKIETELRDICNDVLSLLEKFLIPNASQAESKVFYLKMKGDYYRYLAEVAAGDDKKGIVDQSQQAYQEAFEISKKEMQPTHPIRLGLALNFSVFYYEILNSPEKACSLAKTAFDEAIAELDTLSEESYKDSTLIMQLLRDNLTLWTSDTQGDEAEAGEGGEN

PIF15 affinity resin (Cys-C6 spacer-PIF15 conjugated to agarose) (peptide)
3: Ave [14] | Inject 1 [14] | Inject 2 [14] | Inject 3 [14] | Ave [15] | Ave [16] | Inject 1 [16] | Inject 2 [16] | Inject 3 [16]
1: Ave [6] | Inject 1 [6] | Inject 2 [6] | Inject 3 [6] | Ave [8] | Inject 1 [8] | Inject 2 [8] | Inject 3 [8] | Ave [9] | Inject 1 [9] | Inject 2 [9] | Inject 3 [9] | Ave [10] | Inject 1 [10] | Inject 2 [10] | Inject 3 [10] | Ave [12] | Inject 1 [12] | Inject 2 [12] | Inject 3 [12]
4: Ave [5] | Inject 1 [5] | Inject 2 [5] | Inject 3 [15]
2: Ave [1] | Inject 1 [1] | Inject 2 [1] | Inject 3 [1] | Ave [2] | Inject 1 [2] | Inject 2 [2] | Inject 3 [2] | Ave [3] | Inject 1 [3] | Inject 2 [3] | Inject 3 [3] | Ave [4] | Inject 1 [4] | Inject 2 [4] | Inject 3 [4] | Ave [7] | Inject 1 [7] | Inject 2 [7] | Inject 3 [7] | Ave [11] | Inject 1 [11] | Inject 2 [11] | Inject 3 [11] | Inject 1 [15] | Inject 2 [15]
7: Ave [13] | Inject 1 [13] | Inject 2 [13] | Inject 3 [13]
5: Inject 3 [5]
